Biological target: GST-AKAP79
Experiment: phage display recovery; RII phage recovered by GST-AKAP79 compared with GST alone; pilot study (supplemental Fig. S1B)

RII phage: PKA RIIα (residues 1–45) displayed on the T7 capsid protein, sequence (P13861 2-404): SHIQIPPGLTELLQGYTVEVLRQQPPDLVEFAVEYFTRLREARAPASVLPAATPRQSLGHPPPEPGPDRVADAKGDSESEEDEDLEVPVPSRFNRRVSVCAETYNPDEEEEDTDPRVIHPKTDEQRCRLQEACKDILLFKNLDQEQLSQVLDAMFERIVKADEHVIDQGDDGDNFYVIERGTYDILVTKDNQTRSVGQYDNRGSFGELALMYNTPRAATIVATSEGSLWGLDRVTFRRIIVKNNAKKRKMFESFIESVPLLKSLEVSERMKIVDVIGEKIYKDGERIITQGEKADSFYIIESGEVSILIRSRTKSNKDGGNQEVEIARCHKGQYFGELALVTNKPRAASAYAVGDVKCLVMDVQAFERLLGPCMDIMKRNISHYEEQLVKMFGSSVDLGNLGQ
GST-AKAP79, sequence (P24588 whole entry): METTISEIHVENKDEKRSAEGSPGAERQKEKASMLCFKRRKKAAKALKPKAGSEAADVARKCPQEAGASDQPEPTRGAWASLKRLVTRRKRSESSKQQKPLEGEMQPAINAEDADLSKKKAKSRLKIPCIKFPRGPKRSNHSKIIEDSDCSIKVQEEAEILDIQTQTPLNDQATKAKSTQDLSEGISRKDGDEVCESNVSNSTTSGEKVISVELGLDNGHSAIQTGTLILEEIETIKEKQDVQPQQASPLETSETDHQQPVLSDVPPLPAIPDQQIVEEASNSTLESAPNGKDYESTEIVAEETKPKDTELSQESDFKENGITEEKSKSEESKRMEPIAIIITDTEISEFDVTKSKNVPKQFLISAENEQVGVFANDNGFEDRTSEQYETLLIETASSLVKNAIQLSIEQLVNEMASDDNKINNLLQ

Substance: RII phage: PKA RIIα (residues 1–45) displayed on the T7 capsid protein (from UniProt P13861 1-45) (domain or fragment)
- fold more phage recovered than with GST alone: 300 fold
